Columns and labels:
Assay in all cases: peptide microarray (RepliTope)
SEQ ID NO 71 = target: T1, SEQ ID NO 71 (human)
T1 construct: 15-mer of the human mortalin 348-450 array; by its order peptide #50 (inferred)
T1 peptide: QTVQDLFGRAPSKAV
Protocol: (§1) Eighty nine (89) peptides (15 amino acids each) which were designed to each be shifted by one amino acid on the amino acid sequence ranging from position 348 to position 450 of human mortalin containing the amino acid sequence (SEQ ID NO: 56) ranging from the above position 381 to position 410, were chemically synthesized. Epitope mapping (RepliTope mapping) analysis was then carried out on them using a Tecon HS400 microarray analysis station (FIG. 14).
(§2) Background measurement was carried out for each microarray using an Axon Genepix scanner, so that it was confirmed that no signals were detected. All microarrays were treated using a blocking buffer (Pierce, Puperblock TBS #37536).
(§3) As anti-mortalin monoclonal antibodies having the cellular internalizing function, two antibodies 37-6 and 38-4 were prepared. Antibody 53-3 that is an anti-mortalin antibody not having the cellular internalizing function was prepared for comparison. Each antibody (30 μg/mL, 200 μL) diluted with a blocking buffer was applied to microarrays and then incubated. After the microarrays were washed 3 instances with a TBS buffer containing 0.1% T20, a fluorescence-labeled secondary antibody (1 μg/mL, anti-mouse-Dylight 649; Pierce #35515) was applied thereto and then incubated. Similarly, a control array subjected to incubation with only the secondary antibody was also treated so as to confirm no detected signals.

SEQ ID NO 69 = target: T2, SEQ ID NO 69 (human)
T2 construct: 15-mer of the human mortalin 348-450 array; by its order peptide #48 (inferred)
T2 peptide: VQQTVQDLFGRAPSK
Protocol: as §1, §2, §3

SEQ ID NO 81 = target: T3, SEQ ID NO 81 (human)
T3 construct: 15-mer of the human mortalin 348-450 array
T3 peptide: TRMPKVQQTVQDLFG
Protocol: as §1, §2, §3

SEQ ID NO 74 = target: T4, SEQ ID NO 74 (human)
T4 construct: 15-mer of the human mortalin 348-450 array; by its order peptide #53 (inferred)
T4 peptide: QDLFGRAPSKAVNPD
Protocol: as §1, §2, §3

SEQ ID NO 82 = target: T5, SEQ ID NO 82 (human)
T5 construct: 15-mer of the human mortalin 348-450 array
T5 peptide: RMPKVQQTVQDLFGR
Protocol: as §1, §2, §3

SEQ ID NO 80 = target: T6, SEQ ID NO 80 (human)
T6 construct: 15-mer of the human mortalin 348-450 array
T6 peptide: GMTRMPKVQQTVQDL
Protocol: as §1, §2, §3

SEQ ID NO 75 = target: T7, SEQ ID NO 75 (human)
T7 construct: 15-mer of the human mortalin 348-450 array; by its order peptide #54 (inferred)
T7 peptide: DLFGRAPSKAVNPDE
Protocol: as §1, §2, §3

SEQ ID NO 73 = target: T8, SEQ ID NO 73 (human)
T8 construct: 15-mer of the human mortalin 348-450 array; by its order peptide #52 (inferred)
T8 peptide: VQDLFGRAPSKAVNP
Protocol: as §1, §2, §3

SEQ ID NO 78 = target: T9, SEQ ID NO 78 (human)
T9 construct: 15-mer of the human mortalin 348-450 array
T9 peptide: GEVILVGGMTRMPKV
Protocol: as §1, §2, §3

SEQ ID NO 67 = target: T10, SEQ ID NO 67 (human)
T10 construct: 15-mer of the human mortalin 348-450 array
T10 peptide: PKVQQTVQDLFGRAP
Protocol: as §1, §2, §3

SEQ ID NO 70 = target: T11, SEQ ID NO 70 (human)
T11 construct: 15-mer of the human mortalin 348-450 array; by its order peptide #49 (inferred)
T11 peptide: QQTVQDLFGRAPSKA
Protocol: as §1, §2, §3

SEQ ID NO 72 = target: T12, SEQ ID NO 72 (human)
T12 construct: 15-mer of the human mortalin 348-450 array; by its order peptide #51 (inferred)
T12 peptide: TVQDLFGRAPSKAVN
Protocol: as §1, §2, §3

SEQ ID NO 76 = target: T13, SEQ ID NO 76 (human)
T13 construct: 15-mer of the human mortalin 348-450 array; by its order peptide #55 (inferred)
T13 peptide: LFGRAPSKAVNPDEA
Protocol: as §1, §2, §3

SEQ ID NO 68 = target: T14, SEQ ID NO 68 (human)
T14 construct: 15-mer of the human mortalin 348-450 array; by its order peptide #47 (inferred)
T14 peptide: KVQQTVQDLFGRAPS
Protocol: as §1, §2, §3

SEQ ID NO 79 = target: T15, SEQ ID NO 79 (human)
T15 construct: 15-mer of the human mortalin 348-450 array
T15 peptide: EVILVGGMTRMPKVQ
Protocol: as §1, §2, §3

SEQ ID NO 77 = target: T16, SEQ ID NO 77 (human)
T16 construct: 15-mer of the human mortalin 348-450 array
T16 peptide: KAMQDAEVSKSDIGE
Protocol: as §1, §2, §3

Measured: binding result

B1: anti-mortalin monoclonal antibody 52-3 (antibody, V domains shown)
VH: QVQLQQPGAELVKPGASVKLSCKASGYTFTSYWMHWVKQRPGQGLEWIGEINPSNGRTNYNEKFKSKATLTVDKSSSTAYMQLSSLTSEDSAVYYCARSRYYGSCYFDYWGQGTTLTVSS
VL: KIVMTQAAFSNPVTLGTSASISCRSSKSLLYSNGITYLYWYLQKPGQSPQLLIYQMSNLASGVPDRFSSSGSGTDFTLRISRVEAEDVGVYYCAQNLELPWTFGGGTKLEIK
notes: also called 52-3 antibody; non-internalization antibody
no binding (tested: 30 µg/mL): all assays above
